For series [1], the system named is T1, dCas12j-8 D416R D416R;D369A;E567A;D658A (bacteriophage (metagenome)).
T1 sequence: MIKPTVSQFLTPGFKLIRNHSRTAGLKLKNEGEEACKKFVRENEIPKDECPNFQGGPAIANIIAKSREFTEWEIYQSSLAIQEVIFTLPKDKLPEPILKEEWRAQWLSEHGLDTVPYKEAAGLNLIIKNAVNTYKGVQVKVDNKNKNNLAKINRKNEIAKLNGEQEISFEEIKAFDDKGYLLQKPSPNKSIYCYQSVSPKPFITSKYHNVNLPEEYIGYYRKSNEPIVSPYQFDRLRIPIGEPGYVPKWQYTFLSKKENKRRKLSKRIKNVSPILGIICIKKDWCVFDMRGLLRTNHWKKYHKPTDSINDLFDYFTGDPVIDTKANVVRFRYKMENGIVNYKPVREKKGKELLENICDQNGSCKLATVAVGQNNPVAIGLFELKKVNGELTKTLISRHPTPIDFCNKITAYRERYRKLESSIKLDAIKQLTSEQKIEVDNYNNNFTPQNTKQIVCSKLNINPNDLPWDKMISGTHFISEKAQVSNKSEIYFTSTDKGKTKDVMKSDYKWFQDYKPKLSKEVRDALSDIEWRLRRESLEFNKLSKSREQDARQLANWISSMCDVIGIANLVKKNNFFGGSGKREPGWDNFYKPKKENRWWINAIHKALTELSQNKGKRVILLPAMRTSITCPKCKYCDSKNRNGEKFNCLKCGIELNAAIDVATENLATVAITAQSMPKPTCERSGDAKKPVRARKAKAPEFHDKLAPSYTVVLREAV
As to conditions: HEK293T cells; panel 1c (compare within a panel only); scale: mean GFP / mean GFP of wild type, printed, no background subtraction.

The subject of series [2] is T2, dCas12j-8 E258R+D313R+E547R E258R;D313R;E547R;D369A;E567A;D658A (bacteriophage (metagenome)).
T2 sequence: T1 sequence with E258R, D313R, R416D, E547R
As to conditions: HEK293T cells; panel 1e (compare within a panel only); scale: mean GFP / mean GFP of wild type, printed, no background subtraction.

Series [3] relates to T3, dCas12j-8 E258R+D495R E258R;D495R;D369A;E567A;D658A (bacteriophage (metagenome)).
T3 sequence: T1 sequence with E258R, R416D, D495R
The following applies: HEK293T cells; panel 1d (compare within a panel only); scale: mean GFP / mean GFP of wild type, printed, no background subtraction.

Numbering of substitutions follows the chain as printed.

“CUUUCAAGACUAAUAGAUUGCUCCUUACGAGGAGACACUCCCUAUCAGUGAUAGAG / TTNACTCCCTATCAGTGATAGAG / CTCTATCACTGATAGGGAGTNAA [TetO]”: the binding signal in series [1] was 0.46; in series [2], 3.99; in series [3], 3.18.

Values taken from paper PMC12412624, “Engineered Cas12j‐8 is a Versatile Platform for Multiplexed Genome Modulation in Mammalian Cells”.
